Data from patent US20060009622A1 (ADMINISTRATORS OF THE TULANE EDUCATIONAL FUND, published 2006).
Numbered stars: 1 amine (or outer) side, 2 acyl side, 3 side chain; on linkers, the order of the positions; unused ones are H or OH. Bridge positions count the residues as written; N and C are the ends. Square brackets hold non-standard residues; d marks the D form. Ends that are not written are not given here. NGly(2-(methylamino)ethyl) = CN(CCN(CC(=O)[*:2])[*:1])[*:3]; N(2-Aminoethyl)Gly = O=C(CN(CCN[*:3])[*:1])[*:2]; Nle = CCCC[C@H](N)C(=O)O

B1: combretastatin-carbonyl-N-(2-aminoethyl)-glycine-D-Ser-Nle-D-Tyr-D-Ser-cyclo[Cys-Phe-D-Trp-Lys-Thr-Cys]-Thr-amide (peptide)
peptide: [N(2-Aminoethyl)Gly][dS][Nle][dY][dS]CF[dW]KTCT-NH2
modifications: disulfide 6-11; not fully specified (N-terminus); printed as combretastatin-carbonyl-N-(2-aminoethyl)-glycine-D-Ser-Me-D-Tyr-D-Ser-cyclo[Cys-Phe-D-Trp-Lys-Thr-Cys]-Thr-amide
B2: camptothecin-carbonyl-N-(N-methyl-2-aminoethyl)-glycine-D-Ser-Nle-D-Tyr-D-Ser-cyclo[Cys-Phe-D-Trp-Lys-Thr-Cys]-Thr-amide (peptide)
peptide: [NGly(2-(methylamino)ethyl)][dS][Nle][dY][dS]CF[dW]KTCT-NH2
modifications: disulfide 6-11; not fully specified (N-terminus); printed as camptothecin-carbonyl-N-(N-methyl-2-aminoethyl)-glycine-D-Ser-Nle-D-Tyr-D-Ser-cyclo[Cys-Phe-D-Trp-Lys-Thr-Cys]-Thr-amide
B3: camptothecin-carbonyl-N-(2-aminoethyl)-glycine-D-Ser-Nle-D-Tyr-D-Ser-cyclo[Cys-Phe-D-Trp-Lys-Thr-Cys]-Thr-amide (peptide)
peptide: [N(2-Aminoethyl)Gly][dS][Nle][dY][dS]CF[dW]KTCT-NH2
modifications: disulfide 6-11; not fully specified (N-terminus); printed as camptothecin-carbonyl-N-(2-aminoethyl)-glycine-D-Ser-Nle-D-Tyr-D-Ser-cyclo[Cys-Phe-D-Trp-Lys-Thr-Cys]-Thr-amide

target: human type 2 somatostatin receptor (human, UniProt P30874 1-369, limits assumed); test: cell-based or functional assay
Sequence (P30874 whole entry): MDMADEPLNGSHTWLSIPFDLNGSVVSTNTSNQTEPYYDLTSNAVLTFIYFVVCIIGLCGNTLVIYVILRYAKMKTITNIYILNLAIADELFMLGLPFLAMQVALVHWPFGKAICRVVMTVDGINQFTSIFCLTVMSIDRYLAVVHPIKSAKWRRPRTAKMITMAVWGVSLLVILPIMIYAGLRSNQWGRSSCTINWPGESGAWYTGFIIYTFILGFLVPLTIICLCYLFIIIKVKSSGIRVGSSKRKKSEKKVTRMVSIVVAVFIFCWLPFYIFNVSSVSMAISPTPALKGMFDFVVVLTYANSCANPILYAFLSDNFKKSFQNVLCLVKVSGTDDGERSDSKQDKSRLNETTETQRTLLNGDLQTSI

Molecule	Growth Hormone Inhibition IC50, nM (inhibition of GNRH-stimulated GH release from monolayer cultures of rat pituitary cells)
somatostatin-14 (from UniProt P61278 89-116) (peptide)	0.63 nM
B1	0.31 nM
B2	0.27 nM
B3	0.32 nM
